Our source for the Fold Shift of EC50 and Inhibition of Maximal Response values is patent publication US20110294738A1, “PTHR1 RECEPTOR COMPOUNDS” (priority 2008, published 2011).

“And” between values parts separate entries of the source, which are not always exact repeats. Equal entries are not always repeated. * marks the point of attachment. Palmitoyl = CCCCCCCCCCCCCCCC(=O)*

The chains are these.
B1: Compound 37 (peptide)
peptide: Palmitoyl-LHSLIFMAFFSEKKYLWGFT-NH2
SMILES: CCCCCCCCCCCCCCCC(=O)N[C@@H](CC(C)C)C(=O)N[C@@H](Cc1c[nH]cn1)C(=O)N[C@@H](CO)C(=O)N[C@@H](CC(C)C)C(=O)N[C@H](C(=O)N[C@@H](Cc1ccccc1)C(=O)N[C@@H](CCSC)C(=O)N[C@@H](C)C(=O)N[C@@H](Cc1ccccc1)C(=O)N[C@@H](Cc1ccccc1)C(=O)N[C@@H](CO)C(=O)N[C@@H](CCC(=O)O)C(=O)N[C@@H](CCCCN)C(=O)N[C@@H](CCCCN)C(=O)N[C@@H](Cc1ccc(O)cc1)C(=O)N[C@@H](CC(C)C)C(=O)N[C@@H](Cc1c[nH]c2ccccc12)C(=O)NCC(=O)N[C@@H](Cc1ccccc1)C(=O)N[C@H](C(N)=O)[C@@H](C)O)[C@@H](C)CC
B2: Compound 48 (peptide)
peptide: Palmitoyl-RETNAGRSDTRQQRKLLKS-NH2
SMILES: CCCCCCCCCCCCCCCC(=O)N[C@@H](CCCNC(=N)N)C(=O)N[C@@H](CCC(=O)O)C(=O)N[C@H](C(=O)N[C@@H](CC(N)=O)C(=O)N[C@@H](C)C(=O)NCC(=O)N[C@@H](CCCNC(=N)N)C(=O)N[C@@H](CO)C(=O)N[C@@H](CC(=O)O)C(=O)N[C@H](C(=O)N[C@@H](CCCNC(=N)N)C(=O)N[C@@H](CCC(N)=O)C(=O)N[C@@H](CCC(N)=O)C(=O)N[C@@H](CCCNC(=N)N)C(=O)N[C@@H](CCCCN)C(=O)N[C@@H](CC(C)C)C(=O)N[C@@H](CC(C)C)C(=O)N[C@@H](CCCCN)C(=O)N[C@@H](CO)C(N)=O)[C@@H](C)O)[C@@H](C)O
B3: Compound 52 (peptide)
peptide: Palmitoyl-TNAGRSDTRQQYRKLLKSTL-NH2
SMILES: CCCCCCCCCCCCCCCC(=O)N[C@H](C(=O)N[C@@H](CC(N)=O)C(=O)N[C@@H](C)C(=O)NCC(=O)N[C@@H](CCCNC(=N)N)C(=O)N[C@@H](CO)C(=O)N[C@@H](CC(=O)O)C(=O)N[C@H](C(=O)N[C@@H](CCCNC(=N)N)C(=O)N[C@@H](CCC(N)=O)C(=O)N[C@@H](CCC(N)=O)C(=O)N[C@@H](Cc1ccc(O)cc1)C(=O)N[C@@H](CCCNC(=N)N)C(=O)N[C@@H](CCCCN)C(=O)N[C@@H](CC(C)C)C(=O)N[C@@H](CC(C)C)C(=O)N[C@@H](CCCCN)C(=O)N[C@@H](CO)C(=O)N[C@H](C(=O)N[C@@H](CC(C)C)C(N)=O)[C@@H](C)O)[C@@H](C)O)[C@@H](C)O
B4: Compound 9 (peptide)
peptide: Palmitoyl-LAYFRRLHSTRNYI-NH2
SMILES: CCCCCCCCCCCCCCCC(=O)N[C@@H](CC(C)C)C(=O)N[C@@H](C)C(=O)N[C@@H](Cc1ccc(O)cc1)C(=O)N[C@@H](Cc1ccccc1)C(=O)N[C@@H](CCCNC(=N)N)C(=O)N[C@@H](CCCNC(=N)N)C(=O)N[C@@H](CC(C)C)C(=O)N[C@@H](Cc1c[nH]cn1)C(=O)N[C@@H](CO)C(=O)N[C@H](C(=O)N[C@@H](CCCNC(=N)N)C(=O)N[C@@H](CC(N)=O)C(=O)N[C@@H](Cc1ccc(O)cc1)C(=O)N[C@H](C(N)=O)[C@@H](C)CC)[C@@H](C)O
B5: Compound 51 (peptide)
peptide: Palmitoyl-RETNAGRSDTRQQYRKLLKS-NH2
SMILES: CCCCCCCCCCCCCCCC(=O)N[C@@H](CCCNC(=N)N)C(=O)N[C@@H](CCC(=O)O)C(=O)N[C@H](C(=O)N[C@@H](CC(N)=O)C(=O)N[C@@H](C)C(=O)NCC(=O)N[C@@H](CCCNC(=N)N)C(=O)N[C@@H](CO)C(=O)N[C@@H](CC(=O)O)C(=O)N[C@H](C(=O)N[C@@H](CCCNC(=N)N)C(=O)N[C@@H](CCC(N)=O)C(=O)N[C@@H](CCC(N)=O)C(=O)N[C@@H](Cc1ccc(O)cc1)C(=O)N[C@@H](CCCNC(=N)N)C(=O)N[C@@H](CCCCN)C(=O)N[C@@H](CC(C)C)C(=O)N[C@@H](CC(C)C)C(=O)N[C@@H](CCCCN)C(=O)N[C@@H](CO)C(N)=O)[C@@H](C)O)[C@@H](C)O
B6: Compound 7 (peptide)
peptide: Palmitoyl-AYFRRLHSTRNYIH-NH2
SMILES: CCCCCCCCCCCCCCCC(=O)N[C@@H](C)C(=O)N[C@@H](Cc1ccc(O)cc1)C(=O)N[C@@H](Cc1ccccc1)C(=O)N[C@@H](CCCNC(=N)N)C(=O)N[C@@H](CCCNC(=N)N)C(=O)N[C@@H](CC(C)C)C(=O)N[C@@H](Cc1c[nH]cn1)C(=O)N[C@@H](CO)C(=O)N[C@H](C(=O)N[C@@H](CCCNC(=N)N)C(=O)N[C@@H](CC(N)=O)C(=O)N[C@@H](Cc1ccc(O)cc1)C(=O)N[C@H](C(=O)N[C@@H](Cc1c[nH]cn1)C(N)=O)[C@@H](C)CC)[C@@H](C)O
B7: Compound 33 (peptide)
peptide: Palmitoyl-HSLIFMAFFSEKKYL-NH2
SMILES: CCCCCCCCCCCCCCCC(=O)N[C@@H](Cc1c[nH]cn1)C(=O)N[C@@H](CO)C(=O)N[C@@H](CC(C)C)C(=O)N[C@H](C(=O)N[C@@H](Cc1ccccc1)C(=O)N[C@@H](CCSC)C(=O)N[C@@H](C)C(=O)N[C@@H](Cc1ccccc1)C(=O)N[C@@H](Cc1ccccc1)C(=O)N[C@@H](CO)C(=O)N[C@@H](CCC(=O)O)C(=O)N[C@@H](CCCCN)C(=O)N[C@@H](CCCCN)C(=O)N[C@@H](Cc1ccc(O)cc1)C(=O)N[C@@H](CC(C)C)C(N)=O)[C@@H](C)CC
B8: Compound 47 (peptide)
peptide: Palmitoyl-KLRETNAGRSDTRQQRKLL-NH2
SMILES: CCCCCCCCCCCCCCCC(=O)N[C@@H](CCCCN)C(=O)N[C@@H](CC(C)C)C(=O)N[C@@H](CCCNC(=N)N)C(=O)N[C@@H](CCC(=O)O)C(=O)N[C@H](C(=O)N[C@@H](CC(N)=O)C(=O)N[C@@H](C)C(=O)NCC(=O)N[C@@H](CCCNC(=N)N)C(=O)N[C@@H](CO)C(=O)N[C@@H](CC(=O)O)C(=O)N[C@H](C(=O)N[C@@H](CCCNC(=N)N)C(=O)N[C@@H](CCC(N)=O)C(=O)N[C@@H](CCC(N)=O)C(=O)N[C@@H](CCCNC(=N)N)C(=O)N[C@@H](CCCCN)C(=O)N[C@@H](CC(C)C)C(=O)N[C@@H](CC(C)C)C(N)=O)[C@@H](C)O)[C@@H](C)O
B9: Compound 46 (peptide)
peptide: Palmitoyl-VLATKLRETNAGRSDTRQQ-NH2
SMILES: CCCCCCCCCCCCCCCC(=O)N[C@H](C(=O)N[C@@H](CC(C)C)C(=O)N[C@@H](C)C(=O)N[C@H](C(=O)N[C@@H](CCCCN)C(=O)N[C@@H](CC(C)C)C(=O)N[C@@H](CCCNC(=N)N)C(=O)N[C@@H](CCC(=O)O)C(=O)N[C@H](C(=O)N[C@@H](CC(N)=O)C(=O)N[C@@H](C)C(=O)NCC(=O)N[C@@H](CCCNC(=N)N)C(=O)N[C@@H](CO)C(=O)N[C@@H](CC(=O)O)C(=O)N[C@H](C(=O)N[C@@H](CCCNC(=N)N)C(=O)N[C@@H](CCC(N)=O)C(=O)N[C@@H](CCC(N)=O)C(N)=O)[C@@H](C)O)[C@@H](C)O)[C@@H](C)O)C(C)C
B10: Compound 49 (peptide)
peptide: Palmitoyl-TNAGRSDTRQQRKLLKSTL-NH2
SMILES: CCCCCCCCCCCCCCCC(=O)N[C@H](C(=O)N[C@@H](CC(N)=O)C(=O)N[C@@H](C)C(=O)NCC(=O)N[C@@H](CCCNC(=N)N)C(=O)N[C@@H](CO)C(=O)N[C@@H](CC(=O)O)C(=O)N[C@H](C(=O)N[C@@H](CCCNC(=N)N)C(=O)N[C@@H](CCC(N)=O)C(=O)N[C@@H](CCC(N)=O)C(=O)N[C@@H](CCCNC(=N)N)C(=O)N[C@@H](CCCCN)C(=O)N[C@@H](CC(C)C)C(=O)N[C@@H](CC(C)C)C(=O)N[C@@H](CCCCN)C(=O)N[C@@H](CO)C(=O)N[C@H](C(=O)N[C@@H](CC(C)C)C(N)=O)[C@@H](C)O)[C@@H](C)O)[C@@H](C)O
B11: Compound 45 (peptide)
peptide: Palmitoyl-VRVLATKLRETNAGRSDTR-NH2
SMILES: CCCCCCCCCCCCCCCC(=O)N[C@H](C(=O)N[C@@H](CCCNC(=N)N)C(=O)N[C@H](C(=O)N[C@@H](CC(C)C)C(=O)N[C@@H](C)C(=O)N[C@H](C(=O)N[C@@H](CCCCN)C(=O)N[C@@H](CC(C)C)C(=O)N[C@@H](CCCNC(=N)N)C(=O)N[C@@H](CCC(=O)O)C(=O)N[C@H](C(=O)N[C@@H](CC(N)=O)C(=O)N[C@@H](C)C(=O)NCC(=O)N[C@@H](CCCNC(=N)N)C(=O)N[C@@H](CO)C(=O)N[C@@H](CC(=O)O)C(=O)N[C@H](C(=O)N[C@@H](CCCNC(=N)N)C(N)=O)[C@@H](C)O)[C@@H](C)O)[C@@H](C)O)C(C)C)C(C)C
B12: Compound 53 (peptide)
peptide: Palmitoyl-KLRETNAGRSDTRQQY-NH2
SMILES: CCCCCCCCCCCCCCCC(=O)N[C@@H](CCCCN)C(=O)N[C@@H](CC(C)C)C(=O)N[C@@H](CCCNC(=N)N)C(=O)N[C@@H](CCC(=O)O)C(=O)N[C@H](C(=O)N[C@@H](CC(N)=O)C(=O)N[C@@H](C)C(=O)NCC(=O)N[C@@H](CCCNC(=N)N)C(=O)N[C@@H](CO)C(=O)N[C@@H](CC(=O)O)C(=O)N[C@H](C(=O)N[C@@H](CCCNC(=N)N)C(=O)N[C@@H](CCC(N)=O)C(=O)N[C@@H](CCC(N)=O)C(=O)N[C@@H](Cc1ccc(O)cc1)C(N)=O)[C@@H](C)O)[C@@H](C)O

Chain of PTHR1 receptor (P25961 whole entry): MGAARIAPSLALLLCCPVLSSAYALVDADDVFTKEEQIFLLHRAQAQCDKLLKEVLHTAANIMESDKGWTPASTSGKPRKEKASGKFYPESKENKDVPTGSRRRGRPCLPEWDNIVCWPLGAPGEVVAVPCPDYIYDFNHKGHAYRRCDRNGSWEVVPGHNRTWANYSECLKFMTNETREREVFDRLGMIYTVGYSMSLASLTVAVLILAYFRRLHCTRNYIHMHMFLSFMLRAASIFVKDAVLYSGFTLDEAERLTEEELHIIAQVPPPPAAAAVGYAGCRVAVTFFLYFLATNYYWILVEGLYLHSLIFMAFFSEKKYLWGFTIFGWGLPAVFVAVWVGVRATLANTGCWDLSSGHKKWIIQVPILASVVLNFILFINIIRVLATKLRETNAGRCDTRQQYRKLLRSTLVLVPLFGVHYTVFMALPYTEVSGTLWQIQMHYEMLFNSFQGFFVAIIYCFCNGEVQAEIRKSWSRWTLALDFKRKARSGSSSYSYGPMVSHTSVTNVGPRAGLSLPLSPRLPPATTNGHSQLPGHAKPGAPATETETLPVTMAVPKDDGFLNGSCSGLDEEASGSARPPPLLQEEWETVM

The test addresses PTHR1 receptor.
With B1, the Fold Shift of EC50 was determined as 1.1 fold and the Inhibition of Maximal Response came to 35.6%.
Consider B2, for which the Fold Shift of EC50 amounted to 7 fold and the Inhibition of Maximal Response was -3.3%.
On to B3, for which the Fold Shift of EC50 worked out at 11.1 fold and the Inhibition of Maximal Response turned out to be 1.7%.
Regarding B4, the Fold Shift of EC50 was 1.1 fold and the Inhibition of Maximal Response came to 12.7%.
Take B5: the Fold Shift of EC50 stood at 12.4 fold and the Inhibition of Maximal Response is -0.015.
As for B6, the Fold Shift of EC50 was determined as 1.2 fold and the Inhibition of Maximal Response is 36%.
As for B7, the Fold Shift of EC50 turned out to be 1.1 fold and the Inhibition of Maximal Response came to 27.5%.
B8: the Fold Shift of EC50 stood at 2.7 fold and the Inhibition of Maximal Response was 8.3%.
In the same order, the values of B9 are 0.9 fold and 20.3%.
Take B10: the Fold Shift of EC50 was 1.5 fold and 2.3 fold.
Turning to B11, the Fold Shift of EC50 came to 1.4 fold and the Inhibition of Maximal Response is 9.1%.
The like results for B12 were, in that order, 2.1 fold and 6.4%.
